From US20120301930A1 (YEDA RESEARCH AND DEVELOPMENT, published 2012)

Assays:
[1] = molecular target: T1, f-5A chimera (catalytic module of T. fusca family-5 endoglucanase Cel5A fused to a dockerin from Ruminococcus …); assay: non-denaturing PAGE mobility shift, equimolar mixture
T1 construct: Recombinant chimera expressed in E. coli; all enzyme constructs were designed to contain a His-tag; also called variant Cel5A
T1 chain: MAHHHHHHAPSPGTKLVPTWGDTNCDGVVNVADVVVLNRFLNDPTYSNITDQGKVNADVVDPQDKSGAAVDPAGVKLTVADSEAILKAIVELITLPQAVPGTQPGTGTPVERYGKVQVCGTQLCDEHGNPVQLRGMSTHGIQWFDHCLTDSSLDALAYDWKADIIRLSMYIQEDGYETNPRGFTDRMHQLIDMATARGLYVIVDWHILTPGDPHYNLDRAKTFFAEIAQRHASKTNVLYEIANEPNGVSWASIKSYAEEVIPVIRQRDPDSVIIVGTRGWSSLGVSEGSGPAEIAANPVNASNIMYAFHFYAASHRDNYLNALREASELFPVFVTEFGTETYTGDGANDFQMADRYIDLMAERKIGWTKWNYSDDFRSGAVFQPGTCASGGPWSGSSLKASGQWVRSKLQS

[2] = molecular target: T2, 11A-a chimera (catalytic module of T. fusca Xyn11A attached directly to dockerin B from Acetivibrio …); assay: affinity-based ELISA; complex formation also by non-denaturing PAGE
T2 construct: Recombinant chimera expressed in E. coli, purified on a Ni column (His-tag)

[3] = molecular target: T3, 11A-XBM-a chimera (catalytic module of T. fusca Xyn11A together with its adjacent XBM attached to dockerin B …); assay: as above
T3 construct: Recombinant chimera expressed in E. coli, purified on a Ni column (His-tag); also called variant Xyn11A

binding result [1]: binds
binding result [2]: binds
binding result [3]: binds
B1: Scaf-AF chimeric scaffoldin (cohesin 3 from A. cellulolyticus scaffoldin C, CBM3a from C. thermocellum, cohesin 1 from R. flavefaciens scaffoldin B) (other)
chain: MDLQVDIGSTSGKAGSVVSVPITFTNVPKSGIYALSFRTNFDPQKVTVASIDAGSLIENASDFTTYYNNENGFASMTFEAPVDRARIIDSDGVFATINFKVSDSAKVGELYNITTNSAYTSFYYSGTDEIKNVVYNDGKIEVIASVPTNTPTNTPANTPVSGNLKVEFYNSNPSDTTNSINPQFKVTNTGSSAIDLSKLTLRYYYTVDGQKDQTFWCDHAAIIGSNGSYNGITSNVKGTFVKMSSSTNNADTYLEISFTGGTLEPGAHVQIQGRFAKNDWSNYTQSNDYSFKSASQFVEWDQVTAYLNGVLVWGKEPGGSVVPSTQPVTTPPATTKPPATTIPPSEDPAGGLSAVQPNVSLGEVLDVSANRTAADGTVEWLIPTVTAAPGQTVTMPVVVKSSSLAVAGAQFKIQAATGVSYSSKTDGDAYGSGIVYNNSKYAFGQGAGRGIVAADDSVVLTLAYTVPADCAEGTYDVKWSDAFVSDTDGQNITSKVTLTDGAIIVHHHHHH
